The text below walks through data of patent US20170327577A1, “METHODS OF CONSTRUCTING AMINO TERMINAL IMMUNOGLOBULIN FUSION PROTEINS AND COMPOSITIONS THEREOF” (The California Institute for Biomedical Research, priority 2014, published 2017).

Assay [1] has as its target leptin receptor (UniProt P48357). Description: cell-based or functional assay.
The target of assay [2] is T1, relaxin receptor (LGR7) (UniProt Q9HBX9).
T1 sequence (looked up): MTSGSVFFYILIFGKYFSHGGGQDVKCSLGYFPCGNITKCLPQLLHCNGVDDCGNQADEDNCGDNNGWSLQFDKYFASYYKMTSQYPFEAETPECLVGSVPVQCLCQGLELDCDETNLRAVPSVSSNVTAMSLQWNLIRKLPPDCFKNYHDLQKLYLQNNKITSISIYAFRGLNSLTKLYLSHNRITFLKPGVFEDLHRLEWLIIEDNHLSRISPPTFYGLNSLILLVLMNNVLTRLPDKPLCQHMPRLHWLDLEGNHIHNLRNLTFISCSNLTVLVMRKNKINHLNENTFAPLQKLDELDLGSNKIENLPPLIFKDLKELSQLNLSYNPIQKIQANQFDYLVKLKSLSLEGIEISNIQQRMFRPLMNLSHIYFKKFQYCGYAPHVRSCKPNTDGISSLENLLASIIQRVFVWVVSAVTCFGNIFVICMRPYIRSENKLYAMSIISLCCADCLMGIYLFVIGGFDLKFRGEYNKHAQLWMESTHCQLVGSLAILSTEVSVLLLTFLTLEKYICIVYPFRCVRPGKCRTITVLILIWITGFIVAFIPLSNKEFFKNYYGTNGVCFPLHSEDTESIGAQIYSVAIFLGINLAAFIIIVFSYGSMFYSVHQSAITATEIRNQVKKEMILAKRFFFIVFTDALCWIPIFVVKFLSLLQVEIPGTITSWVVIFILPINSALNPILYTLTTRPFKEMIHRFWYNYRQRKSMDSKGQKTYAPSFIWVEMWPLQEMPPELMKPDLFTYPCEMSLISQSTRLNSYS
Description: cell-based or functional assay.

Assay [3] concerns the target T2, GLP-2 receptor (GLP-2R) (Homo sapiens, UniProt O95838).
T2 sequence (O95838 1-553): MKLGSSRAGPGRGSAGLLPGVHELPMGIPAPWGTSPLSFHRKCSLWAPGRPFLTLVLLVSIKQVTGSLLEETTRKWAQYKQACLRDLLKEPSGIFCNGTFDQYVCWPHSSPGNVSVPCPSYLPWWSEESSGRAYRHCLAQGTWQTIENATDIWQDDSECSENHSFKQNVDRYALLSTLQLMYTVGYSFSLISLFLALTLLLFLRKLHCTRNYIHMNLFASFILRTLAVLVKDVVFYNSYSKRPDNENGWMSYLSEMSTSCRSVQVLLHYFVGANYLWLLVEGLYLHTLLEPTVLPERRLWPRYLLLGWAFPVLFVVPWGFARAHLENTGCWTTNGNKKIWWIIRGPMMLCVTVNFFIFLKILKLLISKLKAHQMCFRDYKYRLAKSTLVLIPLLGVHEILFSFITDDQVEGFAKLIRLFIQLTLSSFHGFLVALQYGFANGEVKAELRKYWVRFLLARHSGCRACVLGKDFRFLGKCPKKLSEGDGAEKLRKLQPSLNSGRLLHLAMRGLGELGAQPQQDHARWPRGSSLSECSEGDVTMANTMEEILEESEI
Description: GLP-2 receptor activation, CRE-luciferase reporter assay in HEK293 cells. It counts as cell-based. As to conditions: Example 18; HEK293 GLP-2R CRE-Luc, 24 hours. In general terms: A reporter such as luciferase makes a cellular process visible.
Description: Luminescence intensities were then measured using One-Glo (Promega) luciferase reagent by following manufacturer's instruction. The EC50 values were determined by fitting data into a logistic sigmoidal function: y=A2+(A1-A2)/(1+(x/x0)p), where A1 is the initial value, A2 is the final value, x0 is the inflection point of the curve, and p is the power. Data was analyzed using GraphPad Prism 6 software.

Assay [4] addresses GLP-2 receptor (UniProt O95838). The assay is described as follows: cell-based or functional assay.
Assay [5] deals with relaxin receptor (LGR8) (Homo sapiens, UniProt Q8WXD0). Description: cell-based or functional assay.
The target in assay [6] is GLP-1 receptor (UniProt P43220). The assay is described as follows: cell-based or functional assay.
Assay [7] deals with glucagon receptor (UniProt P47871). Description: cell-based or functional assay.

Sequence of relaxin receptor (LGR8) (Q8WXD0 whole entry): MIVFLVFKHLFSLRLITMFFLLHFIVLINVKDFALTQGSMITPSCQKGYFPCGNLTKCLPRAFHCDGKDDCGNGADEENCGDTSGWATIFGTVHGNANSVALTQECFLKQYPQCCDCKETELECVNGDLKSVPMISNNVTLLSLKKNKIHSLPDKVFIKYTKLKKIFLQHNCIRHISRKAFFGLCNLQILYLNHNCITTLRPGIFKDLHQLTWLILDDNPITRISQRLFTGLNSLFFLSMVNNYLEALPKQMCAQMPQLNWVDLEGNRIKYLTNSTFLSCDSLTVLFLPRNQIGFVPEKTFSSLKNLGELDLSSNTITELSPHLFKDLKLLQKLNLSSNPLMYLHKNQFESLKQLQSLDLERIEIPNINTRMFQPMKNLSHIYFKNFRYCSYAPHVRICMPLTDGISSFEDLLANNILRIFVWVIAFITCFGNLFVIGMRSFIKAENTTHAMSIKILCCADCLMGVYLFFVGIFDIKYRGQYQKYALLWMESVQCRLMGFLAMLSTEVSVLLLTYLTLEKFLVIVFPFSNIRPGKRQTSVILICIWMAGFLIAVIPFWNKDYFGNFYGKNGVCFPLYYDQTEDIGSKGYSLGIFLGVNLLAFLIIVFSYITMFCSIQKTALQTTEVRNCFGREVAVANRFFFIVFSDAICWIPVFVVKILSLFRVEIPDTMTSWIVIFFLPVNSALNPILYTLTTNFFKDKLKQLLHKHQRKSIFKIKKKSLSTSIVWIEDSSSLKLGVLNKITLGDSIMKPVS
Sequence of palivizumab(NH, CEXGGGGS)-relaxin2(single) and palivizumab light chain (heavy): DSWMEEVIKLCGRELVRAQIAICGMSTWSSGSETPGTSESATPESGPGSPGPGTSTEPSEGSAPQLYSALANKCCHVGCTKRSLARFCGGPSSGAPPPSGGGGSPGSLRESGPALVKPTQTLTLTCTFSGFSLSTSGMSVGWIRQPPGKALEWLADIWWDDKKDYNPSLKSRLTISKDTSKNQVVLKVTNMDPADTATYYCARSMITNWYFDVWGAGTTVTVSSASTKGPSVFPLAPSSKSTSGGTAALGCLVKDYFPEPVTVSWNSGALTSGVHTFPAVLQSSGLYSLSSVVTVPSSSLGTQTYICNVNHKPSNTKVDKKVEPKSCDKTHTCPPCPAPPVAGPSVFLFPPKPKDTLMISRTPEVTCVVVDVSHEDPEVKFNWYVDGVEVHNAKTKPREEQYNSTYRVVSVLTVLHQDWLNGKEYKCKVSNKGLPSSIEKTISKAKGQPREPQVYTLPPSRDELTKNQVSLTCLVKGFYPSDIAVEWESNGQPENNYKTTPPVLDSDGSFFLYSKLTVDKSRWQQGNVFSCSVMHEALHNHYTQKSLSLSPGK
Sequence of palivizumab(NH, CEXGGGGS)-relaxin2(single) and palivizumab light chain (light): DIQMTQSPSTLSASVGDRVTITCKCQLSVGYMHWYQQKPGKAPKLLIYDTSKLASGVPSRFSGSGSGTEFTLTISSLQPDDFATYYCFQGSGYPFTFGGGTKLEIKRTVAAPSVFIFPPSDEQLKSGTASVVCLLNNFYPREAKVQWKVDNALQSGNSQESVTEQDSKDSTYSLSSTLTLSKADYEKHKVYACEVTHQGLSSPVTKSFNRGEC
Sequence of palivizumab(NH, CEXGGGGS)-GLP2 and palivizumab(L) (heavy): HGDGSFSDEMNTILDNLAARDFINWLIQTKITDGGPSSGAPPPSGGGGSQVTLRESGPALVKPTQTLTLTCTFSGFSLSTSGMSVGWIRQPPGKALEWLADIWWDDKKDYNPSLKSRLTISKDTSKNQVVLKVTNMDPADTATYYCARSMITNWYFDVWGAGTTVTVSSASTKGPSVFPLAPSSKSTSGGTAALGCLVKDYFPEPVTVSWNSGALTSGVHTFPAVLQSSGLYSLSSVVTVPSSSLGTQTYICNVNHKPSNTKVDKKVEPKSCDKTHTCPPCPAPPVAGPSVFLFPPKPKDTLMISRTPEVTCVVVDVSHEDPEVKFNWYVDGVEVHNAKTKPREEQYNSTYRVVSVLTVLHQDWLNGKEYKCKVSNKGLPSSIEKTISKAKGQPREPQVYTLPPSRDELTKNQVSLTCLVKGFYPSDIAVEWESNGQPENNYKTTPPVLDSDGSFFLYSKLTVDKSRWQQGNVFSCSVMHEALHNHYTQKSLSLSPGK
Sequence of palivizumab(NH, CEXGGGGS)-GLP2 and palivizumab(L) (light): as the sequence (light) above
Sequence of palivizumab(NH, EAAAK)-GLP2 and palivizumab(L) (heavy): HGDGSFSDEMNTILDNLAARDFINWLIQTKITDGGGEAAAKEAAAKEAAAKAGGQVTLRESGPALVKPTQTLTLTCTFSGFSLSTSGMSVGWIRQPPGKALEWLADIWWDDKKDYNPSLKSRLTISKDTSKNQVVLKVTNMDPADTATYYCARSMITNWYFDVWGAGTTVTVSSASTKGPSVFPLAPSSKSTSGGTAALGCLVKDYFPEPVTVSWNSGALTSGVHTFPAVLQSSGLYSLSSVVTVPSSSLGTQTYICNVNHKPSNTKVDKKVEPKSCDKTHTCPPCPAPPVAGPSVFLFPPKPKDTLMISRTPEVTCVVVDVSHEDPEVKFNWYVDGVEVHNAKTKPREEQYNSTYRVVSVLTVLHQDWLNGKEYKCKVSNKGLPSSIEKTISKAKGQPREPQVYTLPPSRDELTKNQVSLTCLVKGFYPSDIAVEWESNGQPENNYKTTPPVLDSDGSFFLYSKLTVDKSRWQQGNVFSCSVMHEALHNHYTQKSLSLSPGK
Sequence of palivizumab(NH, EAAAK)-GLP2 and palivizumab(L) (light): as the sequence (light) above
Sequence of palivizumab(NH, EAAAK)-relaxin2(GGGPRR) and palivizumab light chain (heavy): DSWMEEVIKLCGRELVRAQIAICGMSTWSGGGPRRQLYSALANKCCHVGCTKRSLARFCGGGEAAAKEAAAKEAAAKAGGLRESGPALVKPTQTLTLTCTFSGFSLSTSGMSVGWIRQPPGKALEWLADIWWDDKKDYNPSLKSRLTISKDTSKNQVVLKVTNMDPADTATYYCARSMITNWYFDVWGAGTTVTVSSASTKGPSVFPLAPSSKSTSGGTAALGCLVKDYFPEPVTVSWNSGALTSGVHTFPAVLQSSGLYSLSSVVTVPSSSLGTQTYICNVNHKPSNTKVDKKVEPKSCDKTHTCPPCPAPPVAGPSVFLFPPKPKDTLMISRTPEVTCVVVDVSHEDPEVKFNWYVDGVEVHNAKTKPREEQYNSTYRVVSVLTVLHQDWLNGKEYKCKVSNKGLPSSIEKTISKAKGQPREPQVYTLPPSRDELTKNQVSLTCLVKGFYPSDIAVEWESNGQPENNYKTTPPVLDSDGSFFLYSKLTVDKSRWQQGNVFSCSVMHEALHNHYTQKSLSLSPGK
Sequence of palivizumab(NH, EAAAK)-relaxin2(GGGPRR) and palivizumab light chain (light): as the sequence (light) above
Sequence of palivizumab fab(NH, CEXGGGGS)-relaxin2(single) and palivizumab light chain (heavy): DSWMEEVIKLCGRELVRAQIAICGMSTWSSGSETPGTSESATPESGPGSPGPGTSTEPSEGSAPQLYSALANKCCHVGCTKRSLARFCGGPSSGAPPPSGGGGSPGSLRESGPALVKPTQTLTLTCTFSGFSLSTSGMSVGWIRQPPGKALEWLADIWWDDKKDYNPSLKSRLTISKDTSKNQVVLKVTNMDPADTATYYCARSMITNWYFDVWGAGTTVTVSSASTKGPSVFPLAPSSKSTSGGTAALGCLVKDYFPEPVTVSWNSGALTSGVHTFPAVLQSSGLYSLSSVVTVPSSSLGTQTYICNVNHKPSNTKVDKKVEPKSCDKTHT
Sequence of palivizumab fab(NH, CEXGGGGS)-relaxin2(single) and palivizumab light chain (light): as the sequence (light) above
Sequence of palivizumab fab(NH, GGGGS3)-relaxin2(9GS) and palivizumab light chain (heavy): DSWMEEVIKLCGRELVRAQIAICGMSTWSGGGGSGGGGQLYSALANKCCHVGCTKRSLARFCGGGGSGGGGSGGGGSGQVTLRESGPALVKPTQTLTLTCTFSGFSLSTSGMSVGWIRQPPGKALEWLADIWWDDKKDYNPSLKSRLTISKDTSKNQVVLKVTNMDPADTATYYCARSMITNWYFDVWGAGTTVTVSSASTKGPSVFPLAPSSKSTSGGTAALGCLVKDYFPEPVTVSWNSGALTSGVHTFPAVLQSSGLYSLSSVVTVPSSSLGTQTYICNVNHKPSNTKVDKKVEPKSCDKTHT
Sequence of palivizumab fab(NH, GGGGS3)-relaxin2(9GS) and palivizumab light chain (light): as the sequence (light) above

For “leptin (from UniProt P41159 22-167) (ligand)”, in assay [1], the EC50, luciferase reporter (FIG. 6) is 55 pM.

In the case of “palivizumab (NH, CEXGGGGG)-relaxin2(9GS) and palivizumab light chain”, in assay [2], the EC50, CRE-luciferase reporter in HEK293 cells came out at 480 pM.

In turn, “palivizumab (NH, GGGGS3)-relaxin2(9GS) and palivizumab light chain” yielded an EC50, CRE-luciferase reporter in HEK293 cells in assay [2] of 240 pM.

As for “palivizumab (NH, GGGGS3)-relaxin(18GS) and palivizumab light chain”, the EC50, CRE-luciferase reporter in HEK293 cells in assay [2] was 1300 pM.

Take “palivizumab fab(NH, CEXGGGGS)-relaxin2(single) and palivizumab light chain”: the EC50, CRE-luciferase reporter in HEK293 cells in assay [2] stood at 47300 pM.

In assay [2], “palivizumab fab(NH, GGGGS3)-relaxin2(9GS) and palivizumab light chain” had an EC50, CRE-luciferase reporter in HEK293 cells of 5800 pM.

As to “palivizumab(NH, CEXGGGGG)-relaxin2(30GS) and palivizumab light chain”, the EC50, CRE-luciferase reporter in HEK293 cells in assay [2] is 208 pM.

“palivizumab(NH, CEXGGGGG)-relaxin2(GGGPRR) and palivizumab light chain” yielded an EC50, CRE-luciferase reporter in HEK293 cells in assay [2] of 2000 pM.

Regarding “palivizumab(NH, CEXGGGGS)-GLP2 (SEQ ID NO: 218) and palivizumab(L) (SEQ ID NO: 7)”, a half-maximal effect in assay [3] (EC50) was put at 0.133 nM. That is a sub-nanomolar value.

In turn, “palivizumab(NH, CEXGGGGS)-GLP2 and palivizumab(L)” gave an EC50, CRE-luciferase reporter in HEK293 cells in assay [4] of 133 pM.

In assay [2], “palivizumab(NH, CEXGGGGS)-relaxin2(single) and palivizumab light chain” displayed an EC50, CRE-luciferase reporter in HEK293 cells of 2500 pM and an EC50, CRE-luciferase reporter in HEK293 cells (FIG. 13) of 2.5 nM. In addition, the EC50, CRE-luciferase reporter in HEK293 cells (FIG. 13) in assay [5] came out at 553 nM.

On to “palivizumab(NH, EAAAK)-GLP2 and palivizumab(L)”, for which, in assay [4], the EC50, CRE-luciferase reporter in HEK293 cells worked out at 69 pM.

As for “palivizumab(NH, EAAAK)-relaxin2(GGGPRR) and palivizumab light chain”, the EC50, CRE-luciferase reporter in HEK293 cells in assay [2] was 3400 pM.

“palivizumab(NL, EAAAK)-glucagon(2G) and pPalivizumab(NH, GGGGS1)-exendin-4”: the EC50, CRE-luciferase reporter in HEK293 cells is 9 pM in assay [6] and 26 pM in assay [7].

In assay [2], “relaxin-2 (from UniProt P04090 25-185) (ligand)” showed an EC50, CRE-luciferase reporter in HEK293 cells of 12.1 pM; an EC50, CRE-luciferase reporter in HEK293 cells (FIG. 13) of 0.012 nM; an EC50, CRE-luciferase reporter in HEK293 cells (FIG. 23) of 0.014 nM. Also, in assay [5], the EC50, CRE-luciferase reporter in HEK293 cells (FIG. 13) stood at 11.2 nM and the EC50, CRE-luciferase reporter in HEK293 cells (FIG. 23) worked out at 11.2 nM.

The substance trastuzumab(CDR3H) Leptin registered an EC50, luciferase reporter (FIG. 6) in assay [1] of 44.8 pM.
